Measured values reported in patent US20070105771A1 (Y S THERAPEUTICS, published 2007).

How the values were obtained:
Test in all cases: peptide microarray
[1] = molecular target: T1, human CD26-derived 13 mer peptide 72 (human)
T1 peptide: KEDIIYNGITDWV
Protocol: (§1) The overnight incubation was followed by three washings with each of PBS buffer pH 7.5 and water. The microarrays were then scanned using ArrayWorx-Microarray Scanner.
(§2) The SPOT recognition software package ArrayPro was used for data analysis. The mean of signal intensities from 3 identical subarrays on each microarray image was used for data evaluation.

[2] = molecular target: T2, human CD26-derived 13 mer peptide 130 (human)
T2 peptide: ATQERISLQWLRR
Protocol: as §1, §2

[3] = molecular target: T3, human CD26-derived 13 mer peptide 50 (human)
T3 peptide: ERIPNNTQWVTWS
Protocol: as §1, §2

[4] = molecular target: T4, human CD26-derived 13 mer peptide 45 (human)
T4 peptide: DLNKRQLITEERI
Protocol: as §1, §2

[5] = molecular target: T5, human CD26-derived 13 mer peptide 97 (human)
T5 peptide: FYSDESLQYPKTV
Protocol: as §1, §2

[6] = molecular target: T6, human CD26-derived 13 mer peptide 116 (human)
T6 peptide: SVTNATSIQITAP
Protocol: as §1, §2

[7] = molecular target: T7, human CD26-derived 13 mer peptide 51 (human)
T7 peptide: IPNNTQWVTWSPV
Protocol: as §1, §2

[8] = molecular target: T8, human CD26-derived 13 mer peptide 24 (human)
T8 peptide: TFDEFGHSINDYS
Protocol: as §1, §2

[9] = molecular target: T9, human CD26-derived 13 mer peptide 23 (human)
T9 peptide: NSTFDEFGHSIND
Protocol: as §1, §2

[10] = molecular target: T10, human CD26-derived 13 mer peptide 10 (human)
T10 peptide: HEYLYKQENNILV
Protocol: as §1, §2

[11] = molecular target: T11, human CD26-derived 13 mer peptide 5 (human)
T11 peptide: KLYSLRWISDHEY
Protocol: as §1, §2

[12] = molecular target: T12, human CD26-derived 13 mer peptide 62 (human)
T12 peptide: NDIYVKIEPNLPS
Protocol: as §1, §2

[13] = molecular target: T13, human CD26-derived 13 mer peptide 35 (human)
T13 peptide: LEYNYVKQWRHSY
Protocol: as §1, §2

[14] = molecular target: T14, human CD26-derived 13 mer peptide 56 (human)
T14 peptide: SPVGHKLAYVWNN
Protocol: as §1, §2

[15] = molecular target: T15, human CD26-derived 13 mer peptide 52 (human)
T15 peptide: NNTQWVTWSPVGH
Protocol: as §1, §2

[16] = molecular target: T16, human CD26-derived 13 mer peptide 15 (human)
T16 peptide: ILVFNAEYGNSSV
Protocol: as §1, §2

[17] = molecular target: T17, human CD26-derived 13 mer peptide 93 (human)
T17 peptide: EVPLIEYSFYSDE
Protocol: as §1, §2

[18] = molecular target: T18, human CD26-derived 13 mer peptide 49 (human)
T18 construct: also called TEERJPNNTQWVT
T18 peptide: TEERIPNNTQWVT
Protocol: as §1, §2

[19] = molecular target: T19, human CD26-derived 13 mer peptide 53 (human)
T19 peptide: TQWVTWSPVGHKL
Protocol: as §1, §2

[20] = molecular target: T20, human CD26-derived 13 mer peptide 67 (human)
T20 construct: also called LPSYRITWTGKED
T20 peptide: LPSYRITWTGKED
Protocol: as §1, §2

[21] = molecular target: T21, human CD26-derived 13 mer peptide 1 (human)
T21 peptide: YLKNTYRLKLYSL
Protocol: as §1, §2

[22] = molecular target: T22, human CD26-derived 13 mer peptide 133 (human)
T22 peptide: SLQWLRRIQNYSV
Protocol: as §1, §2

[23] = molecular target: T23, human CD26-derived 13 mer peptide 98 (human)
T23 peptide: SDESLQYPKTVRV
Protocol: as §1, §2

[24] = molecular target: T24, human CD26-derived 13 mer peptide 4 (human)
T24 peptide: RLKLYSLRWISDH
Protocol: as §1, §2

[25] = molecular target: T25, human CD26-derived 13 mer peptide 123 (human)
T25 peptide: SMLIGDHYLCDVT
Protocol: as §1, §2

[26] = molecular target: T26, human CD26-derived 13 mer peptide 37 (human)
T26 peptide: YVKQWRHSYTASY
Protocol: as §1, §2

[27] = molecular target: T27, human CD26-derived 13 mer peptide 109 (human)
T27 peptide: PTVKFFVVNTDSL
Protocol: as §1, §2

[28] = molecular target: T28, human CD26-derived 13 mer peptide 102 (human)
T28 peptide: KTVRVPYPKAGAV
Protocol: as §1, §2

[29] = molecular target: T29, human CD26-derived 13 mer peptide 36 (human)
T29 peptide: YNYVKQWRHSYTA
Protocol: as §1, §2

[30] = molecular target: T30, human CD26-derived 13 mer peptide 78 (human)
T30 construct: also called VYEEEVFSAYSAL
T30 peptide: VYEEEVFSAYSAL
Protocol: as §1, §2

[31] = molecular target: T31, human CD26-derived 13 mer peptide 96 (human)
T31 peptide: YSFYSDESLQYPK
Protocol: as §1, §2

[32] = molecular target: T32, human CD26-derived 13 mer peptide 19 (human)
T32 peptide: GNSSVFLENSTFD
Protocol: as §1, §2

[33] = molecular target: T33, human CD26-derived 13 mer peptide 75 (human)
T33 peptide: NGITDWVYEEEVF
Protocol: as §1, §2

[34] = molecular target: T34, human CD26-derived 13 mer peptide 88 (human)
T34 peptide: FLAYAQFNDTEVP
Protocol: as §1, §2

[35] = molecular target: T35, human CD26-derived 13 mer peptide 85 (human)
T35 peptide: WSPNGTFLAYAQF
Protocol: as §1, §2

[36] = molecular target: T36, human CD26-derived 13 mer peptide 70 (human)
T36 peptide: TWTGKEDIIYNGI
Protocol: as §1, §2

[37] = molecular target: T37, human CD26-derived 13 mer peptide 12 (human)
T37 peptide: YKQENNILVFNAE
Protocol: as §1, §2

[38] = molecular target: T38, human CD26-derived 13 mer peptide 118 (human)
T38 peptide: ATSIQITAPASML
Protocol: as §1, §2

[39] = molecular target: T39, human CD26-derived 13 mer peptide 83 (human)
T39 peptide: SALWWSPNGTFLA
Protocol: as §1, §2

[40] = molecular target: T40, human CD26-derived 13 mer peptide 46 (human)
T40 construct: also called NKRQL1TEERIPN
T40 peptide: NKRQLITEERIPN
Protocol: as §1, §2

[41] = molecular target: T41, human CD26-derived 13 mer peptide 63 (human)
T41 peptide: IYVKIEPNLPSYR
Protocol: as §1, §2

[42] = molecular target: T42, human CD26-derived 13 mer peptide 107 (human)
T42 peptide: GAVNPTVKFFVVN
Protocol: as §1, §2

B1: rhuMAb 411 (antibody, human IgG1, kappa, V domains shown)
VH: EVQLVESGAGVKQPGGTLRLTCTASGFSLTTYGVHWVRQAPGKGLEWVGVIWGDGRTDYDAAFMSRVTISKDTSKSTVYLQMNSLRAEDTAVYYCMRNRHDWFDYWGQGTTVTVSS
VL: DILLTQSPSSLSATPGERATITCRASQGIRNNLNWYQQKPGQAPRLLIYYSSNLQSGVPSRFSGSGSGTDFTLTISRLQPEDVAAYYCQQSIKLPFTFGSGTKVEIKR
notes: also called X411
Mean Signal Value [1]: 10.1
Mean Signal Value [2]: 4.3
Mean Signal Value [3]: 34.6
Mean Signal Value [4]: 0
Mean Signal Value [5]: 0.0144
Mean Signal Value [6]: 0.0385
Mean Signal Value [7]: 0.856
Mean Signal Value [8]: 0.00962
Mean Signal Value [9]: 0.00481
Mean Signal Value [10]: 0.0192
Mean Signal Value [11]: 43.1
Mean Signal Value [12]: 0.00481
Mean Signal Value [13]: 84.7
Mean Signal Value [14]: 11.7
Mean Signal Value [15]: 0.12
Mean Signal Value [16]: 0
Mean Signal Value [17]: 0.269
Mean Signal Value [18]: 0.962
Mean Signal Value [19]: 0.00481
Mean Signal Value [20]: 0.00962
Mean Signal Value [21]: 3.5
Mean Signal Value [22]: 6.51
Mean Signal Value [23]: 0.00481
Mean Signal Value [24]: 51.3
Mean Signal Value [25]: 0.438
Mean Signal Value [26]: 98.2
Mean Signal Value [27]: 0
Mean Signal Value [28]: 0.0192
Mean Signal Value [29]: 28.2
Mean Signal Value [30]: 7.86
Mean Signal Value [31]: 0.0144
Mean Signal Value [32]: 0
Mean Signal Value [33]: 9.38
Mean Signal Value [34]: 0
Mean Signal Value [35]: 1.02
Mean Signal Value [36]: 1
Mean Signal Value [37]: 0
Mean Signal Value [38]: 0
Mean Signal Value [39]: 3.64
Mean Signal Value [40]: 0
Mean Signal Value [41]: 8.12
Mean Signal Value [42]: 10.6
